Source: patent US12043658B2, “Conjugate comprising an active MMP-9-binding peptide” (Daiichi Sankyo Company, Limited, priority 2017, dated 2024)

Tests used:
[1] = target: T1, human MMP-9 enzyme active domain E402Q mutant (Homo sapiens, UniProt P14780, E402Q); experiment: Size exclusion chromatography binding to hMMP-9(cat)_E402Q_His6; conditions: 25 μM enzyme, 75 μM inhibitor
T1 construct: an enzyme active domain E402Q mutant (Phe107-Pro449, E402Q) and a His tag; made in house; host or cells: FreeStyle 293F
Method: (§1) With M91005 and M91011 prepared in (1-2), active hMMP-9(cat)_His6 prepared in (2-1-4), and hMMP-9(cat)_E402Q_His6 prepared in (11-3), the binding activity was evaluated by size exclusion chromatography. 25 μM active hMMP-9(cat)_His6 or hMMP-9(cat)_E402Q_His6 and 75 μM active MMP-9-binding peptide or hTIMP-1 (in-house preparation) were mixed, and reacted at 4° C. for 1 hour. After the reaction, 10 μl of the reaction solution was analyzed by size exclusion chromatography. The chromatographic conditions were as follows.
(§2) Detection: Absorbance (280 nm)
(§3) When only active hMMP-9(cat)_His6 was analyzed, the peak of active hMMP-9(cat)_His6 was detected at a retention time of 7.0 minutes (FIG. 53(A)). When a mixture reaction solution of active hMMP-9(cat)_His6 and hTIMP-1 or active MMP-9-binding peptides M91005 or M91011 was analyzed, the retention time of the peak of active hMMP-9(cat)_His6 was shifted to the high molecular weight side (FIG. 53(A)). […] When only human MMP-9(cat)_E402Q_His6 was analyzed, the peak of hMMP-9(cat)_E402Q_His6 was detected at a retention time of 7.1 minutes (FIG. 53(B)). When a mixed reaction solution of human MMP-9(cat)_E402Q_His6 and hTIMP-1 was analyzed, the retention time of the peak of hMMP-9(cat)_E402Q_His6 was shifted to the high molecular weight side (FIG. 53(B)). […] In contrast, when a mixture reaction solution of hMMP-9(cat)_E402Q_His6 and the active MMP-9-binding peptide M91005 or M91011 was analyzed, the retention time of the peak of the hMMP-9(cat)_E402Q_His6 was not changed (FIG. 53(B)). It should be noted that when only hTIMP-1 or the active MMP-9-binding peptides M91005, M91011 was analyzed, the peak of hTIMP-1 was detected at a retention time of 7.3 minutes, the peak of the active MMP-9-binding peptide M91005 was detected at a retention time of 8.2 minutes, and the peak of the active MMP-9-binding peptide M91011 was detected at a retention time of 8.1 minutes (FIG. 53(C)).

[2] = target: T2, active human MMP-9 enzyme active domain (Homo sapiens, UniProt P14780); experiment: Size exclusion chromatography binding to active hMMP-9(cat)_His6; design: an enzyme active domain (Phe107-Pro449) and a His tag; made in house; host or cells: FreeStyle 293F; conditions: 25 μM enzyme, 75 μM inhibitor
Method: as §1, §2, §3

[3] = target: T2, active human MMP-9 enzyme active domain; experiment: ELISA binding to immobilized active human MMP-9 enzyme active domain; conditions: 1 to 1,000 nM peptide, S-tag detection
Method: (§4) The biotin-labeled pro-hMMP-9(cat)_His6_FLAG_Avi obtained in (2-1-6) or biotin-labeled active hMMP-9(cat)_FLAG_Avi obtained in (2-1-7) was immobilized on a streptavidin coated 96-well plate (Thermo Fisher Scientific). After blocking with 3% BSA, 1 to 1,000 nM of the binding peptides were added, and reacted at room temperature for 1.5 hours. After washing, goat anti-S-Tag HRP conjugated (Bethyl Laboratories, Inc.) was added, and reacted at room temperature for 1 hour. After washing, substrates of ELISA POD substrate A.B.T.S kit (Nacalai Tesque Inc.) were added, and reacted at room temperature. After adding a reaction stop solution, the absorbance at 405 nm was measured with Enspire (PerkinElmer, Inc.), and MMP-9-binding activity of the active MMP-9-binding peptides was evaluated.

[4] = target: T3, pro human MMP-9 enzyme active domain (Homo sapiens, UniProt P14780); experiment: ELISA binding to immobilized pro human MMP-9 enzyme active domain; conditions: 1 to 1,000 nM peptide, S-tag detection
T3 construct: a propeptide (Ala20-Arg106), an enzyme active domain (Phe107-Pro449), a FLAG tag; made in house; host or cells: FreeStyle 293F
Method: as §4

[5] = target: T4, human MMP-9 (active hMMP-9(cat)_His6) (Homo sapiens, UniProt P14780); experiment: Human MMP-9 inhibitory activity of active MMP-9-binding peptide derivatives (substrate peptide); assay type: biochemical; conditions: 0.6 nM active hMMP-9(cat)_His6
T4 construct: an enzyme active domain (Phe107-Pro449) and a His tag; made in house; host or cells: FreeStyle 293F
Method: The substrate peptide MOCAc-KPLGL-A2pr (Dnp)-AR-NH2 (SEQ ID NO: 30 (FIG. 46)) (PEPTIDE […], INC.; 3226-v) was dissolved in water to 1 mM, and diluted with an assay buffer (50 mM Tris-HCl, 200 mM NaCl, 2 mM CaCl2, pH 7.5) to use at a final concentration of 2.5 to 10 μM. Fifty μl each of the active hMMP-9(cat)_His6 diluted with the assay buffer and the active MMP-9-binding peptide were mixed, and reacted at 37° C. for 1 hour. Then, 100 μl of the substrate diluted with the assay buffer was added, and fluorescence signals (excitation 328 nm/emission 393 nm) were measured with Enspire (PerkinElmer, Inc.). The final concentration of active hMMP-9(cat)_His6 was 0.4 nM, and the final concentration of the active MMP-9-binding peptide was 0.5 to 25 nM. For reactions and measurements, a ProteoSave™ SS96F black plate (Sumitomo Bakelite Co., Ltd.) was used.
According to the method described in (4-1), human MMP-9 inhibitory activity of each of the binding peptides was evaluated with 0.6 nM final concentration of active hMMP-9(cat)_His6 and 0.0015 to 100 nM final concentration of each active MMP-9-binding peptide (FIGS. 11(A), 12(A), and 13(A)).

T4 sequence (P14780 107-449): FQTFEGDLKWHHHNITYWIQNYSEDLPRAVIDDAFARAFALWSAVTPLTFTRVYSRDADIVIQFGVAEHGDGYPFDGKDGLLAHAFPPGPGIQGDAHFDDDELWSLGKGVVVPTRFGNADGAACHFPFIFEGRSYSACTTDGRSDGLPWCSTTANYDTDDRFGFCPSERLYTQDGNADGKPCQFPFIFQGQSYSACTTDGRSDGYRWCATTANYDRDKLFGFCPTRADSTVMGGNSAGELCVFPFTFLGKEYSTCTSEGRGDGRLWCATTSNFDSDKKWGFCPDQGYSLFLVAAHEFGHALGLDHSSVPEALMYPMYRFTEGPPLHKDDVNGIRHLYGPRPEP
T2 sequence (P14780 107-449): as above
T1 sequence (P14780 107-449 E402Q): as the sequence (P14780 107-449) above, with E296Q counted along it
T3 sequence (P14780 20-449): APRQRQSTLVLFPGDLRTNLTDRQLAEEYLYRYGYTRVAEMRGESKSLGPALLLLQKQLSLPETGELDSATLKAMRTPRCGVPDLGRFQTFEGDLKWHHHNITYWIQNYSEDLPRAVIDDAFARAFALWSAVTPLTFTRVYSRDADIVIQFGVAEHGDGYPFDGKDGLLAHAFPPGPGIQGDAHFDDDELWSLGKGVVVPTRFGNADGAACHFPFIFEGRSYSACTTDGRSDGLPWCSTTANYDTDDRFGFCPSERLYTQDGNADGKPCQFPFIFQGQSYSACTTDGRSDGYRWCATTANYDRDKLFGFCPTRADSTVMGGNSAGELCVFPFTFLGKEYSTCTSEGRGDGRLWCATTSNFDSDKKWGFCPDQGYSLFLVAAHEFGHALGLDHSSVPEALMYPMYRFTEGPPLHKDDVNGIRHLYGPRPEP

| Molecule | human MMP-9 inhibitory activity IC50 compared with parent [5] | other results |
| --- | --- | --- |
| hTIMP-1: hTIMP-1 (in-house preparation) [reference compound] |  | binding to human MMP-9 enzyme active domain E402Q mutant (peak shift) [1]: binds to the human MMP-9 enzyme active domain E402Q mutant; binding to active human MMP-9 enzyme active domain (peak shift) [2]: bind to the active human MMP-9 enzyme active domain |
| wild type SPINK2: Serine Protease Inhibitor Kazal-type 2, human, SEQ ID NO: 1 (FIG. 15) (protein, listed as Homo sapiens) DPQFGLFSKYRTPNCSQYRLPGCPRHFNPVCGSDMSTYANECTLCMKIREGGHNIKIIRNGPC |  | active human MMP-9-binding activity (EC50) [3]: did not bind; pro human MMP-9-binding activity [4]: did not bind |
| M91002_G3: C-terminal derivative of M91002: Stag+linker 2 at the N-terminal, C-terminal 3-mer Gly-Gly-Gly (protein) GSGMKETAAAKFERQHMDSPDLGTDDDDKAMAENLYFQGDPQFGLFSKYRTPNCRTGRGPACQMGFQPVCGSDMSTYANECTLCMKIREGGHNIKIIRNGPCGGG | equivalent to that of M91002 |  |
| M91002_G2: C-terminal derivative of M91002: Stag+linker 2 at the N-terminal, C-terminal 2-mer Gly-Gly (protein) GSGMKETAAAKFERQHMDSPDLGTDDDDKAMAENLYFQGDPQFGLFSKYRTPNCRTGRGPACQMGFQPVCGSDMSTYANECTLCMKIREGGHNIKIIRNGPCGG | equivalent to that of M91002 |  |
| M91002_G0: C-terminal derivative of M91002: Stag+linker 2 at the N-terminal, no C-terminal addition (protein, linker; binder, C-terminal derivative of M91002: Stag+linker 2 at the N-terminal, no C-terminal addition) GSGMKETAAAKFERQHMDSPDLGTDDDDKAMAENLYFQGDPQFGLFSKYRTPNCRTGRGPACQMGFQPVCGSDMSTYANECTLCMKIREGGHNIKIIRNGPC | equivalent to that of M91002 |  |
| M91005_D1G-Fc-01: N-terminal derivative Fc conjugate: Stag+linker 1, M91005_D1G, C-terminal 6-mer, G4S linker and human IgG1 Fc (protein) GSGMKETAAAKFERQHMDSPDLGTDDDDKAMADIGSANSGPQFGLFSKYRTPNCRKRGGPSCQMSYNPVCGSDMSTYANECTLCMKIREGGHNIKIIRNGPCGASAAAGGGGSDKTHTCPPCPAPELLGGPSVFLFPPKPKDTLMISRTPEVTCVVVDVSHEPEVKFNWYVDGVEVHNAKTKPREEQYNSTYRVVSVLTVLHQDWLNGKEYCKVSNKALPAPIEKTISKAKGQPREPQVYTLPPSREEMTKNQVSLTCLVGFYPSDIAVEWESNGQPENNYKTTPPVLDSDGSFFLYSKLTVDKSRWQQNVFSCSVMHEALHNHYTQKSLSLSPGK | M91005-Fc-01 and M91005_D1G-Fc-01 are equivalent |  |
